In test [1] the target is IgG1 F127 pre-complexed with dimeric Fel d 1 (human | cat, UniProt P30438 23-92; P30440 18-109). Put plainly: BLI; pre-complexed with Fel d 1. For orientation: Biolayer interferometry detects binding as a change in optical thickness at a sensor tip.
The target of test [2] is IgG4 F127 pre-complexed with dimeric Fel d 1 (human | cat, UniProt P30438 23-92; P30440 18-109). Kind of test: BLI; pre-complexed with Fel d 1.

B1: human recombinant biotinylated FcγRIIb (CD32b) (receptor)
chain: TPAAPPKAVLKLEPQWINVLQEDSVTLTCRGTHSPESDSIQWFHNGNLIPTHTQPSYRFKANNNDSGEYTCQTGQTSLSDPVHLTVLSEWLVLQTPHLEFQEGETIVLRCHSWKDKPLVKVTFFQNGKSKKFSRSDPNFSIPQANHSHSGDYHCTGNIGYTLYSSKPVTITVQAP
modifications: biotin (biotinylated; site not stated)
For the molecule B1, the koff (usually the first-order rate constant of dissociation) in test [1] turned out to be 0.000279 s⁻¹; in test [2], 0.000126 s⁻¹.

(Values after article PMC9582512 (2022).)
